Test results: patent US6623741B1, “Methods and compositions for inhibition of membrane fusion-associated events including RSV transmission” (Trimeris, Inc., priority 2000, dated 2003)

Assays:
[1] = Circular dichroism spectroscopy (helicity, thermal stability); type: physicochemical
Experimental: Circular Dichroism Spectroscopy:
Circular Dichroism (CD) spectra were obtained using an AVIV Associates 62DS spectrometer equipped with a thermoelectric temperature controller. Spectra were obtained in 0.1, 0.5 and 1.0 cm quartz cells at 1° C. with 0.5 nm steps from 200 to 260 nm, 1.5 nm bandwidth and an averaging time of 4 sec/step. After the cell/buffer blank was subtracted, spectra were smoothed using a third-order least-squares polynomial fit with a conservative (5-10 point) window size to give random residuals. Mixing experiments were performed by comparing the spectrum of the two peptides mixed together in a 0.1 cm path length cell at the desired concentrations (referred to herein as the “experimental” spectrum) to the sum of the individual spectra of the peptides, each solution in a 0.1 cm path length cell (referred to herein as the “model spectrum” for no peptide interaction or “model for no interaction”).
Raw ellipticity values were converted to mean residue ellipticity using standard methods (Cantor & Schimmel, 1980, Biophysical Chemistry Part II: Techniques for the Study of Biological Structure and Function, W.H. Freeman and Co., New York). Conversions for the mixing experiment spectra were performed using a peptide length corresponding to the average of the two peptides. Thermal stability measurements were performed in 2° C. steps, with 1 minute equilibration times. Spectra were smoothed, converted to mean residue ellipticity, and the corresponding value at 222 nm noted from each spectrum. Percent helicity values were calculated using single value decomposition with a basis set of 33 protein spectra (Johnson & Curtis, 1990, Proteins: Structure, Function and Genetics 7:205-214).

[2] = Analytical ultracentrifugation (sedimentation equilibrium); type: physicochemical
Experimental: Analytical Ultracentrifugation:
Sedimentation equilibrium experiments were performed on a Beckman Optima XL-A analytical ultracentrifuge at 4° C. Six-channel cells (12 mm optical path length) were used with an An-60 Ti rotor operated at 13,500, 16,000, 17,000, 20,000, 21,000, 24,000, 25,000, 27,500, 30,000 and 35,000 rpm. The cell radii were scanned using 0.001 cm steps with 10 averages/scan. Data were analyzed using Beckman XLA data analysis software (version 3.01 for Windows) and Beckman-Origin software (version 3.78 for Windows). […] The partial specific volumes were held constant for all models considered.
Single data files were normalized to 270 nm absorbance values using Beer's Law. The data obtained with solutions containing the DP107-like peptides were then analyzed using a single ideal species model to determine a weight-averaged molecular weight (Mw). Diagnostic plots of Mw/Mw0 vs. rpm/rpm0 and Mw vs. radial concentration were used to test for sample homogeneity as described, e.g., by McRorie & Voelker, 1993, Self-Associating Systems in the Analytical Ultracentrifuge, Beckman Instruments, Inc., Palo Alto; and Yphantis et al., 1978, in Physical Aspects of Protein Interactions: Proceedings of the Symposium on Protein Interactions, American Chemical Society Meeting, Catsimpoolas, Ed., pp. 275-303, Elsevier, Miami Beach, Fla. When systematic residuals or a Mw higher than the monomer molecular weight indicated the presence of self-association, associative models such as monomer/trimer, monomer/tetramer and monomer/dimer/tetrarner were investigated. The suitability of a particular model (i.e., the goodness of fit) was judged by the trends observed in the residuals (Johnson & Straume, 1994, in Modern Analytical Ultracentrifugation, Schuster et al., eds., pp. 37-65, Birkhauser, Boston). Using the associative model which produced random residuals when fitting individual data files, a simultaneous, global, weighted fit of multiple data files (up to nine files with different concentrations and speeds) was performed to determine the association constant and 95% confidence intervals. To convert the resulting association constant from absorbance units to concentration units, it was assumed that the absorbance of the n-mer is n times that of the monomer.
The data obtained with DP107-like/DP178-like peptide mixtures were first analyzed with a single ideal species model. When a systematic trend in residuals coupled with the Mw not equal to a precise multimer of HR1+HR2 were obtained, and alternate fitting scheme was explored. For this approach, it was assumed that the solution contained fully associated HR1-HR2 complexes and unassociated DP107-like and DP178-like peptides. The mixtures were analyzed with a two-ideal species model, choosing one species to have a molecular weight of either 28,269 Da (corresponding to three DP107-like plus three DP178-like peptides) or […] (corresponding to four DP107-like plus four DP178-like peptides).

[3] = test system: RSV
[4] = test system: HIV-1 (HIV-1LAI, HIV-1MN, HIV-1RF, HIV-1SF2); type: cell-based; conditions: lowest concentration tested, FIG. 4B
Experimental: Approximately 7×10^4 Molt cells were incubated with 1×10^4 CEM cells chronically infected with the HIV-1LAI virus in 96-well plates (one-half area cluster plates; Costar, Cambridge, Mass.) in a final volume of 100 μl culture medium as previously described (Matthews, T. J. et al., 1987, Proc. Natl. Acad. Sci. USA 84: 5424-5428). Peptide inhibitors were added in a volume of 10 μl and the cell mixtures were incubated for 24 hr. at 37° C. At that time, multinucleated giant cells were estimated by microscopic examination at a 40× magnification which allowed visualization of the entire well in a single field.
The initial screen for antiviral activity assayed peptides' ability to block syncytium formation induced by overnight co-cultivation of uninfected Molt 4 cells with chronically HIV-1 infected CEM cells. […] In the first of these experiments, serial DP178 (SEQ ID NO:15) peptide concentrations between 10 μg/ml and 12.5 ng/ml were tested for blockade of the cell fusion process. For these experiments, CEM cells chronically infected with either HIV-1LAI, HIV-1MN, HIV-1RF, or HIV-1SF2 virus were cocultivated overnight with uninfected Molt 4 cells.
The next series of experiments involved the preparation and testing of a DP178 (SEQ ID NO:15) homolog for its ability to inhibit HIV-1-induced syncytia formation.
The next series of experiments involved a comparison of DP178 (SEQ ID NO:15) HIV-1 and HIV-2 inhibitory activity.

[5] = test system: M41Δ178 fusion protein; experiment: T83 ELARA (Biot-T20) IC50 Conc. (nM)
Source text: Table printed on a drawing sheet, FIG.24A
Head of the field: T83 ELARA (Biot-T20) IC50 Conc. (nM)
The patent's description of the figure: FIGS. 24A-B: Circular dichroism, cell fusion and competitive inhibition data for alanine walk experiments for the peptide T20, which is also known as DP178.
First copying reader's note: The table breaks off at the bottom of the sheet and continues on FIG. 24B; substituted alanine residues are printed in bold, and the T1342 FP column is empty on this sheet.

Row | Substance | %-Helicity ([1]; 35 μM peptide, PBS pH 7) [%] | Tm (midpoint of melting transition) ([1]; 35 μM peptide, PBS pH 7) [°C] | N-mer (weight-averaged molecular weight divided by monomer molecular weight) ([2]; 35 μM) | IC50 [3] [µg/mL] | IC50 [5] [nM] | also measured
1 | Ac-VLHLEGEVNKIKSALLSTNKAVVSLSNGVSVLTSKVLDLKNYIDKQ-NH2 (N-terminus and C-terminus assumed) [Peptide T1581] | 69 | 31 | 1.8 | 3.36 |  | 
2 | T1582: RSV HR1 (DP107-like) peptide of FIG. 28, shorter than T1581 (Ac-VLHLEGEVNKIKSALLSTNKAVVSLSNGVSVLTSKVLDLKNYIDK-NH2) [Peptide T1582] | 49 | 22 | 1.5 |  |  | 
3 | YTNTIYTLLEESQNQQEKNEQELLELDKWASLWNWF [DP-185] |  |  |  |  |  | concentration exhibiting inhibitory activity on HIV-1-induced syncytia formation [4]: ≤ 312.5 ng/mL
4 | Ac-AVSKVLHLEGEVNKIKSALLSTNKAVVSLSNGVSVLTSKVLDLKNYIDKQL-NH2 (N-terminus and C-terminus assumed) [Peptide T1584] | 90 | 53 | 2.1 | 0.23 |  | 
5 | Ac-YTSLIHSLIEESQNQQEKNEQELLELDKWAAAANWF-NH2 [T869] |  |  |  |  | 57 | 
6 | Ac-SKVLHLEGEVNKIKSALLSTNKAVVSLSNGVSVLTSKVLDLKNYIDKQ-NH2 [Peptide T1583] |  |  |  | 1.09 |  | 
7 | T876: T20 with three consecutive residues changed to three alanine residues (YTSLIHSLIAAAQNQQEKNEQELLELDKWASLWNWF) [Peptide T876] |  |  |  |  | 29 | 
8 | Ac-SGVAVSKVLHLEGEVNKIKSALLSTNKAVVSLSNGVSVLTSKVLDLKNYIDKQL-NH2 (N-terminus and C-terminus assumed) [Peptide T1623] | 88 | 55 | 2.2 | 0.80 |  | 
9 | T871: T20 with three consecutive residues changed to three alanine residues (YTSLIHSLIEESQNQQEKNEQELLAAAKWASLWNWF) [Peptide T871] |  |  |  |  | 1160 | 
10 | T1590: RSV HR1 (DP107-like) peptide of FIG. 28, shorter than T1581 (Ac-VLHLEGEVNKIKSALLSTNKAVVSLSNGVSVLTSKVLDLKNYI-NH2) [Peptide T1590] | 10 | <10 |  |  |  | 
11 | Ac-YTSLIHSLIEESQNQQEKNEQAAAELDKWASLWNWF-NH2 [T872] |  |  |  |  | 66 | 
12 | AVSKVLHLEGEVNKIKSALLSTNKAVVSLSNGVSVLTSKVLDLKNYIDKQ (Ac-AVSKVLHLEGEVNKIKSALLSTNKAVVSLSNGVSVLTSKVLDLKNYIDKQ-NH2) [Peptide T1772, RSV DP107-like peptide, residues 153-202 of the RSV F-protein] | 83 | 42 |  |  |  | %-Helicity ([1]; 1 μM T1772): 67%; Tm ([1]; 1 μM T1772): 30 °C; %-Helicity ([1]; 10 μM T1772): 80%; Tm ([1]; 10 μM T1772): 32 °C; %-Helicity ([1]; 50 μM T1772): 84%; Tm ([1]; 50 μM T1772): 42 °C; %-Helicity ([1]; 100 μM T1772): 90%; Tm ([1]; 100 μM T1772): 46 °C; oligomerization state in solution (in words) [2]: trimeric self-association; N-mer (weight-averaged molecular weight divided by monomer molecular weight) ([2]; 25 μM determination): 2.4; Mw, single ideal species model, single data set ([2]; 100 μM, 24,000 rpm): 12,925 Da; average Mw relative to the monomer molecular weight ([2]; average over concentrations): 2.4 times
